{"source": "paper PMC12121391", "about": "“Crystal structure of ATP-dependent DNA ligase from Rhizobium phage vB_RleM_P10VF”", "molecular_target": "T1, P10VF-Lig (ATP-dependent DNA ligase) (Rhizobium phage vB_RleM_P10VF, UniProt A0A076YM08)", "T1 sequence": "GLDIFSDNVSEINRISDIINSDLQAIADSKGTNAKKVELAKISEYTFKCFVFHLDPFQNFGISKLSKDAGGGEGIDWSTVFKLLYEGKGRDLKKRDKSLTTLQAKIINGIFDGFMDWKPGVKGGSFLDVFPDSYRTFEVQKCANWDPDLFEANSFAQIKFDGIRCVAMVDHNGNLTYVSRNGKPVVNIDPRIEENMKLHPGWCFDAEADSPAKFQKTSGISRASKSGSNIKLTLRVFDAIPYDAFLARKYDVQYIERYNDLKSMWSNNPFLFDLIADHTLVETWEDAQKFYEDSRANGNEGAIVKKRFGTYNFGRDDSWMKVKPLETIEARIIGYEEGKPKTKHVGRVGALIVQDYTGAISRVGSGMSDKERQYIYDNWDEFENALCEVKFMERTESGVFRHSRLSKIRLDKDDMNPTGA", "assay": "X-ray crystallography; AMP transferred to the DNA 5'-phosphate (step 2 intermediate); EDTA 5 mM; 2.2 Å; Crystallization: protein in 50 mM Tris pH 7.5, 200 mM NaCl, 1 mM beta-mercaptoethanol; 1.2 eq nicked duplex, 5 mM EDTA, 30 min on ice; 24% PEG 4000, 100 mM bis-Tris pH 5.5, 4 °C (278 K in Table 2)", "conditions": "protein: recombinant, SeMet-substituted, 21 bp, blunt ends", "data": [{"binder": "nicked DNA duplex (21 nt complement, 10 + 11 nt nicked strand) (dsDNA, 2'-O-methyl one nucleotide upstream of the 3' terminus at the nick (strand 2); 5'-phosphate at the nick (strand 3), adenylated (AMP) in the crystal) DNA 1: TTCCGACAGTGGGGTCGCAAT DNA 2: ATTGCGACCC DNA 3: CACTATCGGAA", "values": [{"measurement": "binding result", "value": "binds"}]}]}
